Assays:
Experiment in all cases: flow cytometry on CHO-K1 transfectants, left sub-column
[1] = molecular target: T1, Q15A
T1 construct: also called hCD27 Q15A
T1 receptor chain: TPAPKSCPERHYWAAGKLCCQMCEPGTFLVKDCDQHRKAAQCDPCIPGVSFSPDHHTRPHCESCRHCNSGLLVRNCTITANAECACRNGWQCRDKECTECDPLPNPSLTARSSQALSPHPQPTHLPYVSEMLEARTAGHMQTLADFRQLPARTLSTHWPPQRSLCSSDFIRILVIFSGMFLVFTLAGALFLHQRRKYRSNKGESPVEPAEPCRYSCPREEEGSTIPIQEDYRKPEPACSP
Procedure: (§1) The hCD27 variants that were tested are listed. Amino acids correspond to the UniProt P26842-1 sequence. Amino acids 1-20 constitute the signal peptide. Binding is expressed as the geometric mean of the FITC signal, relative to antibody binding to hCD27, which was set at 100%.
(§2) The ability of several anti-hCD27 antibodies to bind to a series of hCD27 alanine mutants was determined using CHO-K1 cells, transiently transfected pCI-neo empty vector, pCI-neo.hCD27 and several pCI-neo.CD27Ala mutant constructs.
(§3) Detached cells were transferred to 96 wells round-bottomed well plates at approximately 1.2×10⁵ cells/well. After spinning down the cells, discarding the supernatants and re-suspending the cells in the residual volume, the primary antibodies were added and incubated for 30 minutes at 4° C. Cells were washed three times with DPBS/BSA 1%, followed by centrifugation, discarding of the supernatants and re-suspension in the residual volume. […] After washing once, antibody binding was detected using the HTS plate reader (FACS Canto II) and FlowJo software for data analysis. Debris, dead cells and doublets were excluded from the analysis. Binding was expressed as the geometric mean of the FITC signal, relative to antibody binding to hCD27, which was set at 100%.

[2] = molecular target: T2, G16A
T2 construct: also called hCD27 G16A
T2 receptor chain: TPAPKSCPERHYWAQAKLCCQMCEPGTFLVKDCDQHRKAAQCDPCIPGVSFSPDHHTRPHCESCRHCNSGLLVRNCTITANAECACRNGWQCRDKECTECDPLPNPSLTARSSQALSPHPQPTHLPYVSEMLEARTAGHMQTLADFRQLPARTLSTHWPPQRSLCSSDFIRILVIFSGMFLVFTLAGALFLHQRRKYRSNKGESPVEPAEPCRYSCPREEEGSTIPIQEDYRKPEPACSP
Procedure: as §1, §2, §3

[3] = molecular target: T3, F28A
T3 construct: also called hCD27 F28A
T3 receptor chain: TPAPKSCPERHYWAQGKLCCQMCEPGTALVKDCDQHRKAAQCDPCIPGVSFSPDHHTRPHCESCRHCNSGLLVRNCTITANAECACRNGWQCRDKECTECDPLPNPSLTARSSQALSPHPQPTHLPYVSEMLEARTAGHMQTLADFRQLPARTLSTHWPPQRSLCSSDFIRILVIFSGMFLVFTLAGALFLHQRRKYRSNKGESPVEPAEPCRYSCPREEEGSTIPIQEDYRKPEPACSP
Procedure: as §1, §2, §3

[4] = molecular target: T4, V30A
T4 construct: also called hCD27 V30A
T4 receptor chain: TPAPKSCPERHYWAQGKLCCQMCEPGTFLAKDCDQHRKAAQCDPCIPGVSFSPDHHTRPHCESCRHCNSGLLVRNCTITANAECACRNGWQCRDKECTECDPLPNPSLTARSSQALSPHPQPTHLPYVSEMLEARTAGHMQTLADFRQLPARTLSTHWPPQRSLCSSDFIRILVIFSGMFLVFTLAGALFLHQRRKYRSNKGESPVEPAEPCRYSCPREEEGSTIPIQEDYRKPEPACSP
Procedure: as §1, §2, §3

[5] = molecular target: T5, D32A
T5 construct: also called hCD27 D32A
T5 receptor chain: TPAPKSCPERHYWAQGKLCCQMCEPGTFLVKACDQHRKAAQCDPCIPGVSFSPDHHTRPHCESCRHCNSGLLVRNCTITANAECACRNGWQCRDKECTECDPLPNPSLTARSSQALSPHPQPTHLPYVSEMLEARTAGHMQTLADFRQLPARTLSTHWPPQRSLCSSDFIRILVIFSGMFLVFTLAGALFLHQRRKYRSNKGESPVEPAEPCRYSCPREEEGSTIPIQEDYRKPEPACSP
Procedure: as §1, §2, §3

[6] = molecular target: T6, I46A
T6 construct: also called hCD27 I46A
T6 receptor chain: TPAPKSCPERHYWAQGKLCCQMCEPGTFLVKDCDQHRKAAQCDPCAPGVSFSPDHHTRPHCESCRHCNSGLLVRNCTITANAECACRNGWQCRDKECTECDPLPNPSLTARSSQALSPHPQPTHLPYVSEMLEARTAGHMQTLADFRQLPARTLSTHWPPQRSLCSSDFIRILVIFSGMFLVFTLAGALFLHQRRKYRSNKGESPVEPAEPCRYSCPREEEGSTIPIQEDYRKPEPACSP
Procedure: as §1, §2, §3

[7] = molecular target: T7, V49A
T7 construct: also called hCD27 V49A
T7 receptor chain: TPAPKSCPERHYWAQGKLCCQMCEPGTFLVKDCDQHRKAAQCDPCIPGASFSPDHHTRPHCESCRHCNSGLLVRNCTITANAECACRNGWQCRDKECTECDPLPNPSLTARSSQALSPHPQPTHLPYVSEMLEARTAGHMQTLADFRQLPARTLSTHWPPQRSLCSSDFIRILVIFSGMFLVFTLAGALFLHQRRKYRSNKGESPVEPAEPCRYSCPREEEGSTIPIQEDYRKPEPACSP
Procedure: as §1, §2, §3

[8] = molecular target: T8, S63A
T8 construct: also called hCD27 S63A
T8 receptor chain: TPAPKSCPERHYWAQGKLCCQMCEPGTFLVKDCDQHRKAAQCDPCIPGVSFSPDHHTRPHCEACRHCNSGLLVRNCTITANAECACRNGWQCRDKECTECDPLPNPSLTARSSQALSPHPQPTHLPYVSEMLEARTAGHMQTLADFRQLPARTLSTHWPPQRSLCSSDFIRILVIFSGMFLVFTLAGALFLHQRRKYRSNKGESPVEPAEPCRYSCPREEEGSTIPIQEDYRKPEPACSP
Procedure: as §1, §2, §3

[9] = molecular target: T9, W90A
T9 construct: also called hCD27 W90A
T9 receptor chain: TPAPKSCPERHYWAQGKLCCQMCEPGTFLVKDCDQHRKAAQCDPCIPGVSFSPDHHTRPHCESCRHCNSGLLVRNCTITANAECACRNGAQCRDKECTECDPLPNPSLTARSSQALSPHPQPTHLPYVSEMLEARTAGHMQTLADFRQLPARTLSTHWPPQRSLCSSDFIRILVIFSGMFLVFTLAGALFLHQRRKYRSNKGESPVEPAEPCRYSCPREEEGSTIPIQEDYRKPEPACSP
Procedure: as §1, §2, §3

[10] = molecular target: T10, Q91A
T10 construct: also called hCD27 Q91A
T10 receptor chain: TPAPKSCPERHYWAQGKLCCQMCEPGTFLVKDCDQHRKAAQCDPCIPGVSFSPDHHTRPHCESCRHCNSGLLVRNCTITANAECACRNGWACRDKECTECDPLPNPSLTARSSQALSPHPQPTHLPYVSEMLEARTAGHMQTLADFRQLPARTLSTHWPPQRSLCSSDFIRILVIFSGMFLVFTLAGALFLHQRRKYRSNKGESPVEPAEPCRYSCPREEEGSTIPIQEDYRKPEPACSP
Procedure: as §1, §2, §3

B1: hCD27.131A (mouse parental 131A) (antibody, mouse IgG1, V domains shown)
VH: QIQLVQSGPELKKPGETVKISCKASGYTFTNYGMNWVKQAPGKGLKWMGWINTNTGEPTYAEEFKGRFAFSLETSATTAYLQINNLKNEDTATYFCAREGDAMDYWGQGTSVTVSS
VL: QIVLTQSPAIMSASPGEKVTMTCSASSSVSYMHWYQQKSGTSPKRWIYDTSKLASGVPARFSGSGSGTSYSLTISSMEAEDAATYYCQQWNSYPFTFGSGTKLEIK
notes: Mouse IgG1 antibody; also called mouse hCD27.131A
binding, WT hCD27 = 100 (GM FITC) [1]: 99.6%
binding, WT hCD27 = 100 (GM FITC) [2]: 94.8%
binding, WT hCD27 = 100 (GM FITC) [3]: 106%
binding, WT hCD27 = 100 (GM FITC) [4]: 170%
binding, WT hCD27 = 100 (GM FITC) [5]: 113%
binding, WT hCD27 = 100 (GM FITC) [6]: 132%
binding, WT hCD27 = 100 (GM FITC) [7]: 147%
binding, WT hCD27 = 100 (GM FITC) [8]: 162%
binding, WT hCD27 = 100 (GM FITC) [9]: 126%
binding, WT hCD27 = 100 (GM FITC) [10]: 148%
